Biological target: FZD1/2/4/5/7/8
Test: cell-based or functional assay

Row | TOPFLASH % Wnt Maxima | TOPFLASH EC50 | TOPFLASH Maximal Signal (% Wnt3a maxima) (% Wnt3a maxima) | Binder
1 | 57 % Wnt Maxima | 0.3 nM |  | CT0001 (FZD IgG-LRP Diabody; paratopes 5016; 2539, 2542) (bispecific antibody) heavy 1: EVQLVESGGGLVQPGGSLRLSCAASGFNIHSSSIHWVRQAPGKGLEWVAATYSSFGSITYADSVKGRFTISADTSKNTAYLQMNSLRAEDTAVYYCARYHHPFGYALDYWGQGTLVTVSSASTKGPSVFPLAPSSKSTSGGTAALGCLVKDYFPEPVTVSWNSGALTSGVHTFPAVLQSSGLYSLSSVVTVPSSSLGTQTYICNVNHKPSNTKVDKKVEPKSCDKTHTCPPCPAPELLGGPSVFLFPPKPKDTLMISRTPEVTCVVVDVSHEDPEVKFNWYVDGVEVHNAKTKPREEQYNSTYRVVSVLTVLHQDWLNGKEYKCKVSNKALPAPIEKTISKAKGQPREPQVYTLPPIRELMTSNQVSLSCAVKGFYPSDIAVEWESNGQPENNYKTTPPVLDSDGSFFLVSKLTVDKSRWQQGNVFSCSVMHEALHNHYTQKSLSLSPGKSGSETPGTSESATPESGGGEVQLVESGGGLVQPGGSLRLSCAASGFNISSYYIHWVRQAPGKGLEWVASIYSSYGYTSYADSVKGRFTISADTSKNTAYLQMNSLRAEDTAVYYCARTVRGSKKPYFSGWAMDYWGQGTLVTVSSGGGGSDIQMTQSPSSLSASVGDRVTITCRASQSVSSAVAWYQQKPGKAPKLLIYSASSLYSGVPSRFSGSRSGTDFTLTISSLQPEDFATYYCQQYSWGPFTFGQGTKVEIK heavy 2: EVQLVESGGGLVQPGGSLRLSCAASGFNIHSSSIHWVRQAPGKGLEWVAATYSSFGSITYADSVKGRFTISADTSKNTAYLQMNSLRAEDTAVYYCARYHHPFGYALDYWGQGTLVTVSSASTKGPSVFPLAPSSKSTSGGTAALGCLVKDYFPEPVTVSWNSGALTSGVHTFPAVLQSSGLYSLSSVVTVPSSSLGTQTYICNVNHKPSNTKVDKKVEPKSCDKTHTCPPCPAPELLGGPSVFLFPPKPKDTLMISRTPEVTCVVVDVSHEDPEVKFNWYVDGVEVHNAKTKPREEQYNSTYRVVSVLTVLHQDWLNGKEYKCKVSNKALPAPIEKTISKAKGQPREPMVFDLPPSREEMTKNQVSLWCMVKGFYPSDIAVEWESNGQPENNYKTTPPVLDSDGSFFLYSKLTVDKSRWQQGNVFSCSVMHEALHNHYTQKSLSLSPGKSGSETPGTSESATPESGGGEVQLVESGGGLVQPGGSLRLSCAASGFNISYSSIHWVRQAPGKGLEWVAYISSYYGYTYYADSVKGRFTISADTSKNTAYLQMNSLRAEDTAVYYCARAHYFPWAGAMDYWGQGTLVTVSSGGGGSDIQMTQSPSSLSASVGDRVTITCRASQSVSSAVAWYQQKPGKAPKLLIYSASSLYSGVPSRFSGSRSGTDFTLTISSLQPEDFATYYCQQYYWPITFGQGTKVEIK light: DIQMTQSPSSLSASVGDRVTITCRASQSVSSAVAWYQQKPGKAPKLLIYSASSLYSGVPSRFSGSRSGTDFTLTISSLQPEDFATYYCQQGVYLFTFGQGTKVEIKRTVAAPSVFIFPPSDEQLKSGTASVVCLLNNFYPREAKVQWKVDNALQSGNSQESVTEQDSKDSTYSLSSTLTLSKADYEKHKVYACEVTHQGLSSPVTKSFNRGEC
2 | 49 % Wnt Maxima | 0.7 nM | 50 | ANT-1 (LRP Diabody-Fc-FZD Fab; paratopes 2540, 2542; 5016) (bispecific antibody) heavy 1: MNLLLILTFVAAAVAEFEVQLVESGGGLVQPGGSLRLSCAASGFNISSYYIHWVRQAPGKGLEWVASIYSSYGYTSYADSVKGRFTISADTSKNTAYLQMNSLRAEDTAVYYCARTVRGSKKPYFSGWAMDYWGQGTLVTVSSGGGGSDIQMTQSPSSLSASVGDRVTITCRASQSVSSAVAWYQQKPGKAPKLLIYSASSLYSGVPSRFSGSRSGTDFTLTISSLQPEDFATYYCQQYYFLITFGQGTKVEIKLEDKTHTKVEPKSSDKTHNCPPCPAPELLGGPSVFLFPPKPKDTLMISRTPEVTCVVVDVSHEDPEVKFNWYVDGVEVHNAKTKPREEQYNSTYRVVSVLTVLHQDWLNGKEYKCKVSNKALPAPIEKTISKAKGQPREPQVYTLPPIRELMTSNQVSLSCAVKGFYPSDIAVEWESNGQPENNYKTTPPVLDSDGSFFLVSKLTVDKSRWQQGNVFSCSVMHEALHNHYTQKSLSLSPGKSGSETPGTSESATPESGGGEVQLVESGGGLVQPGGSLRLSCAASGFNIHSSSIHWVRQAPGKGLEWVAATYSSFGSITYADSVKGRFTISADTSKNTAYLQMNSLRAEDTAVYYCARYHHPFGYALDYWGQGTLVTVSSASTKGPSVFPLAPSSKSTSGGTAALGCLVKDYFPEPVTVSWNSGALTSGVHTFPAVLQSSGLYSLSSVVTVPSSSLGTQTYICNVNHKPSNTKVDKKVEPKSCDKTHT heavy 2: MNLLLILTFVAAAVAEFEVQLVESGGGLVQPGGSLRLSCAASGFNISYSSIHWVRQAPGKGLEWVASISPYYGYTYYADSVKGRFTISADTSKNTAYLQMNSLRAEDTAVYYCARSSYFPWFSAMDYWGQGTLVTVSSGGGGSDIQMTQSPSSLSASVGDRVTITCRASQSVSSAVAWYQQKPGKAPKLLIYSASSLYSGVPSRFSGSRSGTDFTLTISSLQPEDFATYYCQQYYWPITFGQGTKVEIKLEDKTHTKVEPKTSDKTHTCPPCPAPELLGGPSVFLFPPKPKDTLMISRTPEVTCVVVDVSHEDPEVKFNWYVDGVEVHNAKTKPREEQYNSTYRVVSVLTVLHQDWLNGKEYKCKVSNKALPAPIEKTISKAKGQPREPMVFDLPPSREEMTKNQVSLWCMVKGFYPSDIAVEWESNGQPENNYKTTPPVLDSDGSFFLYSKLTVDKSRWQQGNVFSCSVMHEALHNHYTQKSLSLSPGKSGSETPGTSESATPESGGGEVQLVESGGGLVQPGGSLRLSCAASGFNIHSSSIHWVRQAPGKGLEWVAATYSSFGSITYADSVKGRFTISADTSKNTAYLQMNSLRAEDTAVYYCARYHHPFGYALDYWGQGTLVTVSSASTKGPSVFPLAPSSKSTSGGTAALGCLVKDYFPEPVTVSWNSGALTSGVHTFPAVLQSSGLYSLSSVVTVPSSSLGTQTYICNVNHKPSNTKVDKKVEPKSCDKTHT light: DIQMTQSPSSLSASVGDRVTITCRASQSVSSAVAWYQQKPGKAPKLLIYSASSLYSGVPSRFSGSRSGTDFTLTISSLQPEDFATYYCQQGVYLFTFGQGTKVEIKRTVAAPSVFIFPPSDEQLKSGTASVVCLLNNFYPREAKVQWKVDNALQSGNSQESVTEQDSKDSTYSLSSTLTLSKADYEKHKVYACEVTHQGLSSPVTKSFNRGEC
3 | 63 % Wnt Maxima | 0.3 nM |  | CM0011 (FZD Diabody-Fc-LRP Diabody; paratopes 5019; 2539, 2542) (bispecific antibody) chain 1: MNLLLILTFVAAAVAEFEVQLVESGGGLVQPGGSLRLSCAASGFNIGSSSIHWVRQAPGKGLEWVASIYSAFASTSYADSVKGRFTISADTSKNTAYLQMNSLRAEDTAVYYCARYHFPFGFALDYWGQGTLVTVSSGGGGSDIQMTQSPSSLSASVGDRVTITCRASQSVSSAVAWYQQKPGKAPKLLIYSASSLYSGVPSRFSGSRSGTDFTLTISSLQPEDFATYYCQQGVYLFTFGQGTKVEIKLEDKTHTKVEPKSSDKTHNCPPCPAPELLGGPSVFLFPPKPKDTLMISRTPEVTCVVVDVSHEDPEVKFNWYVDGVEVHNAKTKPREEQYNSTYRVVSVLTVLHQDWLNGKEYKCKVSNKALPAPIEKTISKAKGQPREPQVYTLPPIRELMTSNQVSLSCAVKGFYPSDIAVEWESNGQPENNYKTTPPVLDSDGSFFLVSKLTVDKSRWQQGNVFSCSVMHEALHNHYTQKSLSLSPGKSGSETPGTSESATPESGGGEVQLVESGGGLVQPGGSLRLSCAASGFNISSYYIHWVRQAPGKGLEWVASIYSSYGYTSYADSVKGRFTISADTSKNTAYLQMNSLRAEDTAVYYCARTVRGSKKPYFSGWAMDYWGQGTLVTVSSGGGGSDIQMTQSPSSLSASVGDRVTITCRASQSVSSAVAWYQQKPGKAPKLLIYSASSLYSGVPSRFSGSRSGTDFTLTISSLQPEDFATYYCQQYSWGPFTFGQGTKVEIK chain 2: MNLLLILTFVAAAVAEFEVQLVESGGGLVQPGGSLRLSCAASGFNIGSSSIHWVRQAPGKGLEWVASIYSAFASTSYADSVKGRFTISADTSKNTAYLQMNSLRAEDTAVYYCARYHFPFGFALDYWGQGTLVTVSSGGGGSDIQMTQSPSSLSASVGDRVTITCRASQSVSSAVAWYQQKPGKAPKLLIYSASSLYSGVPSRFSGSRSGTDFTLTISSLQPEDFATYYCQQGVYLFTFGQGTKVEIKLEDKTHTKVEPKTSDKTHTCPPCPAPELLGGPSVFLFPPKPKDTLMISRTPEVTCVVVDVSHEDPEVKFNWYVDGVEVHNAKTKPREEQYNSTYRVVSVLTVLHQDWLNGKEYKCKVSNKALPAPIEKTISKAKGQPREPMVFDLPPSREEMTKNQVSLWCMVKGFYPSDIAVEWESNGQPENNYKTTPPVLDSDGSFFLYSKLTVDKSRWQQGNVFSCSVMHEALHNHYTQKSLSLSPGKSGSETPGTSESATPESGGGEVQLVESGGGLVQPGGSLRLSCAASGFNISYSSIHWVRQAPGKGLEWVAYISSYYGYTYYADSVKGRFTISADTSKNTAYLQMNSLRAEDTAVYYCARAHYFPWAGAMDYWGQGTLVTVSSGGGGSDIQMTQSPSSLSASVGDRVTITCRASQSVSSAVAWYQQKPGKAPKLLIYSASSLYSGVPSRFSGSRSGTDFTLTISSLQPEDFATYYCQQYYWPITFGQGTKVEIK
4 | 52 % Wnt Maxima | 0.3 nM |  | CM0126 (FZD Diabody-Fc-LRP Diabody; paratopes 5016; 2539, 2542) (bispecific antibody) chain 1: MNLLLILTFVAAAVAEFEVQLVESGGGLVQPGGSLRLSCAASGFNIHSSSIHWVRQAPGKGLEWVAATYSSFGSITYADSVKGRFTISADTSKNTAYLQMNSLRAEDTAVYYCARYHHPFGYALDYWGQGTLVTVSSGGGGSDIQMTQSPSSLSASVGDRVTITCRASQSVSSAVAWYQQKPGKAPKLLIYSASSLYSGVPSRFSGSRSGTDFTLTISSLQPEDFATYYCQQGVYLFTFGQGTKVEIKLEDKTHTKVEPKSSDKTHNCPPCPAPELLGGPSVFLFPPKPKDTLMISRTPEVTCVVVDVSHEDPEVKFNWYVDGVEVHNAKTKPREEQYNSTYRVVSVLTVLHQDWLNGKEYKCKVSNKALPAPIEKTISKAKGQPREPQVYTLPPIRELMTSNQVSLSCAVKGFYPSDIAVEWESNGQPENNYKTTPPVLDSDGSFFLVSKLTVDKSRWQQGNVFSCSVMHEALHNHYTQKSLSLSPGKSGSETPGTSESATPESGGGEVQLVESGGGLVQPGGSLRLSCAASGFNISSYYIHWVRQAPGKGLEWVASIYSSYGYTSYADSVKGRFTISADTSKNTAYLQMNSLRAEDTAVYYCARTVRGSKKPYFSGWAMDYWGQGTLVTVSSGGGGSDIQMTQSPSSLSASVGDRVTITCRASQSVSSAVAWYQQKPGKAPKLLIYSASSLYSGVPSRFSGSRSGTDFTLTISSLQPEDFATYYCQQYSWGPFTFGQGTKVEIK chain 2: MNLLLILTFVAAAVAEFEVQLVESGGGLVQPGGSLRLSCAASGFNIHSSSIHWVRQAPGKGLEWVAATYSSFGSITYADSVKGRFTISADTSKNTAYLQMNSLRAEDTAVYYCARYHHPFGYALDYWGQGTLVTVSSGGGGSDIQMTQSPSSLSASVGDRVTITCRASQSVSSAVAWYQQKPGKAPKLLIYSASSLYSGVPSRFSGSRSGTDFTLTISSLQPEDFATYYCQQGVYLFTFGQGTKVEIKLEDKTHTKVEPKTSDKTHTCPPCPAPELLGGPSVFLFPPKPKDTLMISRTPEVTCVVVDVSHEDPEVKFNWYVDGVEVHNAKTKPREEQYNSTYRVVSVLTVLHQDWLNGKEYKCKVSNKALPAPIEKTISKAKGQPREPMVFDLPPSREEMTKNQVSLWCMVKGFYPSDIAVEWESNGQPENNYKTTPPVLDSDGSFFLYSKLTVDKSRWQQGNVFSCSVMHEALHNHYTQKSLSLSPGKSGSETPGTSESATPESGGGEVQLVESGGGLVQPGGSLRLSCAASGFNISYSSIHWVRQAPGKGLEWVAYISSYYGYTYYADSVKGRFTISADTSKNTAYLQMNSLRAEDTAVYYCARAHYFPWAGAMDYWGQGTLVTVSSGGGGSDIQMTQSPSSLSASVGDRVTITCRASQSVSSAVAWYQQKPGKAPKLLIYSASSLYSGVPSRFSGSRSGTDFTLTISSLQPEDFATYYCQQYYWPITFGQGTKVEIK

Source: patent publication US20260250398A1
